B1: TFE3 (parent)
chain: FHLGLEDILMEEEEGVVGGLSGGA

Variants of: B1
Assay: protein stability index of a GFP-peptide fusion (GPS, HEK-293T) (PSI 1-6); higher = more stable
Details: c terminus: a fixed tail appended
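Also: lentivirally expressed fusions sorted by FACS into six bins by GFP to DsRed ratio, PSI derived from sequencing read proportions per bin multiplied by bin number.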

Protein stability index: each site, then its substitutions
L20: R 3.99; W 3.02; V 4.69; P 3.79; F 4.09; S 4.52; H 4.24; Q 4.47; I 4.08; Y 3.41
V16: R 3.52; S 3.82; N 3.68; Y 3.34; L 2.77; W 3.33; F 2.83; D 4.07; I 4.12; H 3.76; C 4.07; P 3.08
L9: E 4.57; D 4; S 3.69; Y 3.87; N 4.33; K 4.17; H 4.08; T 4.37; M 4.1; G 4.43; W 2.66
L3: Y 3.56; Q 4.22; H 4.32; P 4.44; E 5.06; V 4.14; F 3.92; G 3.44; W 2.45
A24: P 3.07; T 3.52; W 1.75; Y 2.68; M 3.12; G 4.32; H 3.25
G19: D 4.69; F 2.69; N 3.84; K 3.34; S 3.28; W 2.18; A 3.97; E 4.32; R 3.54; T 3.48; I 2.87
S21: R 3.7; D 3.95; Y 2.77; W 2.3; E 4.65; V 3.81; P 3.35; H 3.44; C 3.48; M 3.54; N 3.6; K 3.48
G15: S 3.92; F 2.42; C 3.24; Q 4.23; N 3.84; T 3.51; I 2.9; R 4.03; P 3.59; Y 3.04
D7: K 2.77; H 2.88; Y 1.57; E 3.56; Q 3.19; F 2.28; V 2.89; G 3.54; S 3.31; A 2.34
G18: D 4.06; T 3.5; E 4.1; Y 3.23; A 3.64; V 3.93; F 2.77; R 3.72; S 3.27; I 3.35; C 3.76; H 3.66
E13: K 3.41; I 1.88; N 3.55; L 2.37; Q 3.4; C 2.16; S 3.34; T 3.34; A 2.83; H 3.19; D 3.3; V 2.46; R 3.1; P 2.41; W 2.18
L5: W 4.21; N 3.85; T 4.23; C 4.36; G 4.52; H 3.91; K 3.76; Y 3.21; E 4.96; V 4.53; S 4.37; D 4.38; F 3.16; M 3.46; A 4.62
G23: W 2.15; I 3.17; T 3.56; M 3.19; P 4; D 4.04; N 3.96; Q 3.89; R 3.29; F 2.7
E14: Q 2.98; H 2.54; G 2.94; M 2.27; C 2.73; K 3.34; S 2.83; D 3.82; N 2.72; V 2.53; A 3.17; Y 2.39; L 2.67
V17: M 3.46; D 4.44; Y 3.03; Q 3.69; E 3.64; G 3.15; C 4.01; H 3.7; A 3.54; S 4.13

Source: the supplement of paper PMC10567573
